Test results from patent publication US6858210B1, “Therapeutic and diagnostic domain 1 β2GPI polypeptides and methods of using same” (La Jolla Pharmaceutical Co., priority 1998, dated 2005).

Legend:
[1] = system: affinity purified β2GPI-dependent antiphospholipid antibody; assay: Cardiolipin based ELISA, recombinant β2GPI proteins bound to cardiolipin coated wells; assay type: binding, human; conditions: cardiolipin coated plates
Description: Microtiter plates (Immulon 1 #3350 from Dynex Technologies) were coated with 30 μl of a 50 μg/ml solution of cardiolipin in ethanol, dried overnight at 4° C., washed three times with PBS, pH 7.2, and blocked for one hour at room temperature with 75 μl of 5% (wt/v) fish gelatin, (Hipure Liquid Gelatin, Norland Products Inc. 695 Joyce Kilmer Ave., New Brunswick N.J., USA). The plates were washed three times with PBS, charged with 50 μl of full length recombinant β2GPI at 10 μg/ml in 5% fish gelatin and incubated at 37° C. for one hour. […] The optical density, at 550 nm, was determined by reading the plates in a microplate autoreader (Bio-Teck Instruments, model EL311).
Seven different recombinant β2GPI mutant proteins were examined to determine if they could support the direct binding of affinity purified β2GPI-dependent antiphospholipid antibody preparations in the presence of anionic phospholipid. All seven recombinant mutant β2GPI were assayed with rabbit anti-β2GPI and with an affinity purified β2GPI-dependent antiphospholipid antibody preparation. Each mutant recombinant β2GPI protein was tested, in a dose dependent fashion and GST-6his was included as a negative control. The recombinant mutant β2GPI proteins were bound to microtiter plates that had previously been coated with cardiolipin. […]

[2] = system: APS patient plasma; assay: Surface plasmon resonance (BIAcore): APS patient plasma/serum over immobilized β2GPI proteins; assay type: binding, human; set-up: key: Req = fitted equilibrium plateau BIAcore response; conditions: for Req (mean ± sem): diluted 1:1
Excerpt: (§1) Reagents. CM5 chips, NHS and EDC and HBS-EP buffer were from BIAcore. Human haptoglobin (phenotyope 1—1), a protein containing the short consensus repeat motif found in β2GPI, was immobilized in a separate flow cell on the chip and used as a negative control. Recombinant β2GPI and domain-deletion mutants of β2GPI were expressed in Tn5 cells using the baculovirus protein expression system and purified from the supernatants by nickel-chelation affinity column. Iverson et al. (1998) Proc. Natl. Acad. Sci. USA 95:15542-15546. Normal human plasma samples were purchased (George King Biomedical) or obtained in-house. Patient plasma samples from individuals diagnosed with either primary or secondary (to lupus) antiphospholipid antibody syndrome were obtained from a number of clinical sources.
(§2) The 55 controls used in this study were derived from a heterogenous sample. Thirty control samples (15 male; 15 female; mean age 34 yrs, range 19-45 yrs) purchased from George King Bio-Medical (Overland Park, Kans.), 5 local volunteers (3 male, 2 female), 2 pooled commercial sources and 18 blood bank donors of unknown origin were included in the analysis. The patient samples were collected from several sources and included patients with histories of venous thrombosis, arterial occlusions, cerebrovascular occlusions, multiple miscarriages and thrombocytopenia. All patients included in the study had IgG antiphospholipid antibody level (GPL) levels>20 by internal assay.
Total IgG fraction was isolated from plasma using Immunopure Plus protein G agarose beads and Immunopure IgG binding and elution buffers according to the manufacturers recommendation (Pierce).
(§3) Surface Plasmon Resonance. All experiments were performed using a BIAcore™ 2000 instrument at 25° C. with a flow rate of 10 μL/minute. Chip equilibration and binding studies were performed with degassed HBS-EP buffer, which consists of 0.01 M HEPES pH 7.4, 0.15 M NaCl, 3 mM EDTA and 0.005% (v/v) surfactant P20. Covalent coupling of protein ligands through their free amino groups to the CM5 chip was accomplished by flowing 40 μL of 0.05 M NHS/0.2M EDC over the chip to activate the chip, followed by exposure to the appropriate protein ligand. Recombinant β2GPI(His)6, domain-deletion mutants of β2GPI and haptoglobin were immobilized by flowing 50 μL of a 25 μg/mL solution in 10 mM acetate, (pH 4.8) over the NHS-activated CM5 chip. The excess reactive groups on the chip surface are then quenched with 40 μL of 1 M ethanoloamine, (pH 8.5). Human plasma samples (130 μL) were diluted 1:1 with HBS-EP, flowed over the β2GPI chip, and response values were collected for 780 seconds. The chips were regenerated between sample exposures with 80 μL of 0.1 M glycine-HCl (pH 2.1), 0.1 M NaCl. Since the approach to binding equilibrium was incomplete during the measurement period, the equilibrium binding value (Req) was determined by fitting the association curves to the following equation using the manufacturers software (BiaEvaluation version 2.2, Uppsala, Sweden) Rt=Req(I−e^−ks(t−t0))+R0 where Rt is the measured BIAcore response at time t, Req is the equilibrium plateau response, t is time, t0 is initial time, k, is an apparent association constant (ks=kaC+kdis, where ka is the association constant, C is the analyte concentration and kdis is the dissociation constant), and R0 is a response offset. In some experiments total IgG fractions from human plasma samples were obtained from binding to and acid elution from protein G. The plasma remaining after binding to protein G was remixed with fresh protein G beads and isolated as IgG-stripped plasma. Neutralized IgG preparations and IgG-stripped plasma diluted 1:1 with buffer were flowed over the β2GPI chip as described above. Results and Discussion

[3] = system: Normal human plasma; assay: Surface plasmon resonance (BIAcore): control plasma/serum over immobilized β2GPI proteins; assay type: binding; conditions: serum of 55 controls; for Req (mean ± sem): diluted 1:1
Excerpt: as §1, §2
as §3, with “Neutralized IgG preparations and IgG-stripped plasma diluted 1:1 with buffer were flowed over the β2GPI chip as described above. Results and Discussion” left out

B1: 12345: recombinant full length human β2GPI (domains 1-5) with C-terminal GlyHis6, baculovirus expressed (protein)
chain: GRTCPKPDDLPFSTVVPLKTFYEPGEEITYSCKPGYVSRGGMRKFICPLTGLWPINTLKCTPRVCPFAGILENGAVRYTTFEYPNTISFSCNTGFYLNGADSAKCTEEGKWSPELPVCAPIICPPPSIPTFATLRVYKPSAGNNSLYRDTAVFECLPQHAMFGNDTITCTTHGNWTKLPECREVKCPFPSRPDNGFVNYPAKPTLYYKDKATFGCHDGYSLDGPEEIECTKLGNWSAMPSCKASCKLPVKKATVVYQGERVKIQEKFKNGMLHGDKVSFFCKNKEKKCSYTEDAQCIDGTIEVPKCFKEHSSLAFWKTDASDVKPCGHHHHHH
- direct binding of patient antibody [1]: readily detected
- BIAcore Req ([2]; non-selective patient 6117, IgG-stripped Plasma (1:2)): 0
- BIAcore Req ([2]; non-selective patient 6117, Total IgG (1:4)): 120
- BIAcore Req ([2]; non-selective patient 6117, Whole Plasma (1:2)): 324
- BIAcore Req ([2]; non-selective patient 6194, IgG-stripped Plasma (1:2)): 0
- BIAcore Req ([2]; non-selective patient 6194, Total IgG (1:4)): 470
- BIAcore Req ([2]; non-selective patient 6194, Whole Plasma (1:2)): 2046
- BIAcore Req ([2]; non-selective patient 6611, IgG-stripped Plasma (1:2)): 0
- BIAcore Req ([2]; non-selective patient 6611, Total IgG (1:4)): 251
- BIAcore Req ([2]; non-selective patient 6611, Whole Plasma (1:2)): 892
- BIAcore Req ([2]; non-selective patient 6627, IgG-stripped Plasma (1:2)): 0
- BIAcore Req ([2]; non-selective patient 6627, Total IgG (1:4)): 132
- BIAcore Req ([2]; non-selective patient 6627, Whole Plasma (1:2)): 324
- BIAcore Req ([2]; non-selective patient 6649, IgG-stripped Plasma (1:2)): 0
- BIAcore Req ([2]; non-selective patient 6649, Total IgG (1:4)): 253
- BIAcore Req ([2]; non-selective patient 6649, Whole Plasma (1:2)): 758
- BIAcore Req ([2]; non-selective patient 7013, IgG-stripped Plasma (1:2)): 0
- BIAcore Req ([2]; non-selective patient 7013, Total IgG (1:4)): 115
- BIAcore Req ([2]; non-selective patient 7013, Whole Plasma (1:2)): 241
- BIAcore Req ([2]; patient 6207, IgG-stripped Plasma (1:2)): 0
- BIAcore Req ([2]; patient 6207, Total IgG (1:4)): 480
- BIAcore Req ([2]; patient 6207, Whole Plasma (1:2)): 1450
- BIAcore Req ([2]; patient 6501, IgG-stripped Plasma (1:2)): 0
- BIAcore Req ([2]; patient 6501, Total IgG (1:4)): 732
- BIAcore Req ([2]; patient 6501, Whole Plasma (1:2)): 1526
- BIAcore Req ([2]; patient 6515, IgG-stripped Plasma (1:2)): 0
- BIAcore Req ([2]; patient 6515, Total IgG (1:4)): 440
- BIAcore Req ([2]; patient 6515, Whole Plasma (1:2)): 1024
- BIAcore Req ([2]; patient 6601, IgG-stripped Plasma (1:2)): 0
- BIAcore Req ([2]; patient 6601, Total IgG (1:4)): 266
- BIAcore Req ([2]; patient 6601, Whole Plasma (1:2)): 792
- BIAcore Req ([2]; patient 6626, IgG-stripped Plasma (1:2)): 49
- BIAcore Req ([2]; patient 6626, Total IgG (1:4)): 1132
- BIAcore Req ([2]; patient 6626, Whole Plasma (1:2)): 1622
- BIAcore Req ([2]; patient 6642, IgG-stripped Plasma (1:2)): 48
- BIAcore Req ([2]; patient 6642, Total IgG (1:4)): 480
- BIAcore Req ([2]; patient 6642, Whole Plasma (1:2)): 811
- BIAcore Req ([2]; patient 6701, IgG-stripped Plasma (1:2)): 0
- BIAcore Req ([2]; patient 6701, Total IgG (1:4)): 460
- BIAcore Req ([2]; patient 6701, Whole Plasma (1:2)): 952
- BIAcore Req ([2]; patient 6703, IgG-stripped Plasma (1:2)): 0
- BIAcore Req ([2]; patient 6703, Total IgG (1:4)): 556
- BIAcore Req ([2]; patient 6703, Whole Plasma (1:2)): 1001
- BIAcore Req ([2]; patient 7015, IgG-stripped Plasma (1:2)): 0
- BIAcore Req ([2]; patient 7015, Total IgG (1:4)): 864
- BIAcore Req ([2]; patient 7015, Whole Plasma (1:2)): 2092
- BIAcore Req ([2]; patient 7201, IgG-stripped Plasma (1:2)): 0
- BIAcore Req ([2]; patient 7201, Total IgG (1:4)): 292
- BIAcore Req ([2]; patient 7201, Whole Plasma (1:2)): 603
- Median Req ([2]; serum of 106 APS patients (GPL ≧ 20)): 635
- Req (mean ± sem) ([2]; serum of 106 APS patients (GPL ≧ 20), listed as D1-5): 730 ± 42
- Req (mean ± sem) ([2]; serum of 106 APS patients (GPL ≧ 20), listed as β2-GPI(D1-5)): 730
- Median Req [3]: 201
- Req (mean ± sem) ([3]; listed as D1-5): 328 ± 52
- Req (mean ± sem) ([3]; listed as β2-GPI(D1-5)): 328
